Experimental data from paper PMC2891263 (Biochemistry, 2010).

Experiments:
[1] = molecular target: rhodamine-labeled MetJ (MetJ-A1C-rhodamine) (E. coli) (UniProt P0A8U6); test: AUC
[2] = molecular target: the molecule itself; test: AUC

stoichiometry N [1] | Molecule | stoichiometry N [2]
2 | rhodamine-labeled MetJ (MetJ-A1C-rhodamine) (from UniProt P0A8U6 1-105) (natural protein) | 
 | unlabeled MetJ (methionine repressor protein) (natural protein, E. coli, UniProt P0A8U6 1-105, looked up) MAEWSGEYISPYAEHGKKSEQVKKITVSIPLKVLKILTDERTRRQVNNLRHATNSELLCEAFLHAFTGQPLPDDADLRKERSDEIPEAAKEIMREMGINPETWEY | 2
